# Tested on: APP/PS1 mice (Alzheimer mouse model)
# Test: Synaptic formation in hippocampal CA1 and CA3 of APP/PS1 mice
# Assay type: in vivo
# Conditions: 30 mg/kg intravenous, four consecutive weeks, compared to mutant LRRC4B protein fragment
# Procedure: FIGS. 16A, 16B, and 16C show the ability of LRRC4B peptide fragment (amino acid residues 453-576 of SEQ ID NO: 2; “WT”) (i.e., SEQ ID NO: 7) to promote synaptic formation in the hippocampal CA1 of APP/PS1 mice. As further described in Example 8, APP/PS1 mice were treated with the LRRC4B peptide fragment (30 mg/kg; intravenous administration) for four consecutive weeks, and then synaptic formation was assessed by fluorescence microscopy using antibodies against SYP and PSD95. Control animals received no treatment (“Cont”) or the mutant LRRC4B peptide fragment […] (i.e., comprising alanine substitutions at positions 488 and 489 of SEQ ID NO: 2; SEQ ID NO: 16). FIG. 16A provides representative fluorescent photomicrographs. FIGS. 16B and 16C show the SYP and PSD95 intensity, respectively.
# FIGS. 17A, 17B, and 17C show the ability of LRRC4B peptide fragment (amino acid residues 453-576 of SEQ ID NO: 2; “WT”; SEQ ID NO: 7) to promote synaptic formation in the hippocampal CA3 of APP/PS1 mice. The animals were treated and analyzed as described in FIGS. 16A-16C. FIG. 17A provides representative fluorescent photomicrographs. FIGS. 17B and 17C show the SYP and PSD95 intensity, respectively.
# Additionally, to confirm the above effect on neurite outgrowth in vivo, APP/PS1 mice (Alzheimer mouse model) were used. […] Hong et al., Science 352(6286): 712-716 (May 2016). […]
molecule,measurement,value
"LRRC4B (453-576): LRRC4B ectodomain fragment, amino acids 453-576 of SEQ ID NO: 2; FLAG-tagged or hFc-fused (protein, FLAG tag or human Fc, FLAG-tagged or hFc-fused) VSAVDPVAAGGTGSGGGGPGGSGGVGGGSGGYTYFTTVTVETLETQPGEEALQPRGTEKEPPGPTTDGVWGGGRPGDAAGPASSSTTAPAPRSSRPTEKAFTVPITDVTENALKDLDDVMKTTK",SYP and PSD95 immunoreactivities in CA1 and CA3,increased SYP and PSD95 immunoreactivities in CA1 and CA3
